According to patent US20210246200A1 (UNIVERSIT T Z RICH, published 2021):

Key:
Proleukin® (aldesleukin) [1] = biological target: T1, Proleukin® (aldesleukin) (human, UniProt P60568 21-153, limits assumed); assay: ELISA, coated Proleukin, HEK293F supernatant 1:2
T1 construct: Variant of human wt IL-2 with C145S (C125S on mature IL-2); also called IL-2 (Proleukin®); human IL-2 (Proleukin)
Protocol: Subsequently, hIL-2 binding efficiency of the antibodies present in the supernatants was determined using ELISA. In brief, ELISA plates (Maxisorp 96-well black microtiter plate) were coated overnight at 4° C. with 100p/well of Proleukin® (5 μg/ml PBS). ELISA plates were washed once with TBST (1×TBS/0.05% Tween 20) using a plate-washer (BioTek). […] After removal of the blocking buffer, plates were washed once with TBST using the plate washer. Supernatants were diluted 1:2 in blocking buffer and 50 μl transferred to the designated well of the ELISA plate. Each sample was present on three ELISA plates. The three plates were incubated at RT under gentle agitation. […] The other two plates were washed either every hour three times with TBST for 4 hours or washed every hour three times for 12 hours before adding the detection antibody. […] Luminescence signal was measured after 5 minutes incubation in the dark. […] All ELISA values are mean values based on two measurements.

Proleukin® (aldesleukin) [2] = biological target: T1, Proleukin® (aldesleukin); assay: ELISA, coated Proleukin, serially diluted supernatant

T1 sequence (P60568 other isoform, or with tags, fused parts or gaps limits assumed): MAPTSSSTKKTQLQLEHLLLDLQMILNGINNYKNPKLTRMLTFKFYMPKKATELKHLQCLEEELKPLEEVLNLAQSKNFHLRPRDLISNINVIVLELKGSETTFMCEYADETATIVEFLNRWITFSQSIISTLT

B1: Antibody No: 2 (antibody, human IgG1, kappa, N297A, V domains shown)
VH: EVQLVQSGAEVKKPGESLKISCKGSGYAFTNYLIEWVRQMPGKGLEWMGVINPGSGGTNYNEKFKGQVTISADKSISTAYLQWSSLKASDTAMYYCARWRGEGYYAYFDVWGQGTTVTVSS
VL: AIRLTQSPSSFSASTGDRVTITCKASQSVDYQGDSYLNWYQQKPGKAPKLLIYAASNLESGVPSRFSGSGSGTDFTLTISSLQSEDFATYYCQQSNEDPYTFGGGTKVEIKR
notes: VH WT; VK M33L; HEK293F supernatant
Proleukin® (aldesleukin) [1]
  ELISA value (Normal ELISA): 1360 luminescence signal
  ELISA value (wash 3x every hour for 4 HRS): 1230 luminescence signal
  ELISA value (wash 3x every hour for 12 HRS): 518 luminescence signal
Proleukin® (aldesleukin) [2]
  EC50: 790 pM

B2: Antibody No: 3 (antibody, human IgG1, kappa, N297A, V domains shown)
VH: EVQLVQSGAEVKKPGESLKISCKGSGYAFTNYLIEWVRQMPGKGLEWMGVINPGSGGTNYNEKFKGQVTISADKSISTAYLQWSSLKASDTAMYYCARWRGEGYYAYFDVWGQGTTVTVSS
VL: AIRLTQSPSSFSASTGDRVTITCKASQSVDYQGDSYMNWYQQKPGKAPKLLIYSASNLESGVPSRFSGSGSGTDFTLTISSLQSEDFATYYCQQSNEDPYTFGGGTKVEIKR
notes: VH WT; VK A50S; HEK293F supernatant
Proleukin® (aldesleukin) [1]
  ELISA value (Normal ELISA): 4500 luminescence signal
  ELISA value (wash 3x every hour for 4 HRS): 4580 luminescence signal
  ELISA value (wash 3x every hour for 12 HRS): 1310 luminescence signal
Proleukin® (aldesleukin) [2]
  EC50: 510 pM

B3: Antibody No: 7 (antibody, human IgG1, kappa, N297A, V domains shown)
VH: EVQLVQSGAEVKKPGESLKISCKGSGYAFTNYLIEWVRQMPGKGLEWMGVINPGSGGTNYNEKFKGQVTISADKSISTAYLQWSSLKASDTAMYYCARWRGEGYYAYYDVWGQGTTVTVSS
VL: AIRLTQSPSSFSASTGDRVTITCKASQSVDYQGDSYLNWYQQKPGKAPKLLIYAASNLESGVPSRFSGSGSGTDFTLTISSLQSEDFATYYCQQSNEDPYTFGGGTKVEIKR
notes: VK M33L; HEK293F supernatant
Proleukin® (aldesleukin) [1]
  ELISA value (Normal ELISA): 7640 luminescence signal
  ELISA value (wash 3x every hour for 4 HRS): 6360 luminescence signal
  ELISA value (wash 3x every hour for 12 HRS): 1550 luminescence signal
Proleukin® (aldesleukin) [2]
  EC50: 310 pM

B4: Antibody No: 4 (antibody, human IgG1, kappa, N297A, V domains shown)
VH: EVQLVQSGAEVKKPGESLKISCKGSGYAFTNYLIEWVRQMPGKGLEWMGVINPGSGGTNYNEKFKGQVTISADKSISTAYLQWSSLKASDTAMYYCARWRGEGYYAYFDVWGQGTTVTVSS
VL: AIRLTQSPSSFSASTGDRVTITCKASQSVDYQGDSYMNWYQQKPGKAPKLLIYTASNLESGVPSRFSGSGSGTDFTLTISSLQSEDFATYYCQQSNEDPYTFGGGTKVEIKR
notes: VH WT; VK A50T; HEK293F supernatant
Proleukin® (aldesleukin) [1]
  ELISA value (Normal ELISA): 2180 luminescence signal
  ELISA value (wash 3x every hour for 4 HRS): 1990 luminescence signal
  ELISA value (wash 3x every hour for 12 HRS): 705 luminescence signal
Proleukin® (aldesleukin) [2]
  EC50: 730 pM

B5: Antibody No: 9 (antibody, human IgG1, kappa, N297A, V domains shown)
VH: EVQLVQSGAEVKKPGESLKISCKGSGYAFTNYLIEWVRQMPGKGLEWMGVINPGSGGTNYNEKFKGQVTISADKSISTAYLQWSSLKASDTAMYYCARWRGEGYYAYYDVWGQGTTVTVSS
VL: AIRLTQSPSSFSASTGDRVTITCKASQSVDYQGDSYMNWYQQKPGKAPKLLIYTASNLESGVPSRFSGSGSGTDFTLTISSLQSEDFATYYCQQSNEDPYTFGGGTKVEIKR
notes: VK A50T; HEK293F supernatant
Proleukin® (aldesleukin) [1]
  ELISA value (Normal ELISA): 1940 luminescence signal
  ELISA value (wash 3x every hour for 4 HRS): 1430 luminescence signal
  ELISA value (wash 3x every hour for 12 HRS): 686 luminescence signal
Proleukin® (aldesleukin) [2]
  EC50: 500 pM

B6: Antibody No: 21 (antibody, human IgG1, kappa, N297A, V domains shown)
VH: EVQLVQSGAEVKKPGESLKISCKGSGYAFSNYLIEWVRQMPGKGLEWMGVINPGSGGTNYNEKFKGQVTISADKSISTAYLQWSSLKASDTAMYYCARWRGEGYYAYYDVWGQGTTVTVSS
VL: AIRLTQSPSSFSASTGDRVTITCKASQSVDYQGDSYMNWYQQKPGKAPKLLIYAASNLESGVPSRFSGSGSGTDFTLTISSLQSEDFATYYCQQSNEDPYTFGGGTKVEIKR
notes: VK WT; HEK293F supernatant
Proleukin® (aldesleukin) [1]
  ELISA value (Normal ELISA): 2200 luminescence signal
  ELISA value (wash 3x every hour for 4 HRS): 1840 luminescence signal
  ELISA value (wash 3x every hour for 12 HRS): 892 luminescence signal
Proleukin® (aldesleukin) [2]
  EC50: 650 pM

B7: Antibody No: 16 (antibody, human IgG1, kappa, N297A, V domains shown)
VH: EVQLVQSGAEVKKPGESLKISCKGSGYAFTNYLIEWVRQMPGKGLEWMGVINPGSGGTYYNEKFKGQVTISADKSISTAYLQWSSLKASDTAMYYCARWRGEGYYAYYDVWGQGTTVTVSS
VL: AIRLTQSPSSFSASTGDRVTITCKASQSVDYQGDSYMNWYQQKPGKAPKLLIYAASNLESGVPSRFSGSGSGTDFTLTISSLQSEDFATYYCQQSNEDPYTFGGGTKVEIKR
notes: VK WT; HEK293F supernatant
Proleukin® (aldesleukin) [1]
  ELISA value (Normal ELISA): 10200 luminescence signal
  ELISA value (wash 3x every hour for 4 HRS): 9810 luminescence signal
  ELISA value (wash 3x every hour for 12 HRS): 2280 luminescence signal
Proleukin® (aldesleukin) [2]
  EC50: 380 pM

B8: Antibody No: 11 (antibody, human IgG1, kappa, N297A, V domains shown)
VH: EVQLVQSGAEVKKPGESLKISCKGSGYAFTNYLIEWVRQMPGKGLEWMGVINPGSGGTYYNEKFKGQVTISADKSISTAYLQWSSLKASDTAMYYCARWRGEGYYAYFDVWGQGTTVTVSS
VL: AIRLTQSPSSFSASTGDRVTITCKASQSVDYQGDSYMNWYQQKPGKAPKLLIYAASNLESGVPSRFSGSGSGTDFTLTISSLQSEDFATYYCQQSNEDPYTFGGGTKVEIKR
notes: VH N58Y; VK WT; HEK293F supernatant
Proleukin® (aldesleukin) [1]
  ELISA value (Normal ELISA): 12400 luminescence signal
  ELISA value (wash 3x every hour for 4 HRS): 10500 luminescence signal
  ELISA value (wash 3x every hour for 12 HRS): 3500 luminescence signal
Proleukin® (aldesleukin) [2]
  EC50: 340 pM

B9: Antibody No: 18 (antibody, human IgG1, kappa, N297A, V domains shown)
VH: EVQLVQSGAEVKKPGESLKISCKGSGYAFTNYLIEWVRQMPGKGLEWMGVINPGSGGTYYNEKFKGQVTISADKSISTAYLQWSSLKASDTAMYYCARWRGEGYYAYYDVWGQGTTVTVSS
VL: AIRLTQSPSSFSASTGDRVTITCKASQSVDYQGDSYMNWYQQKPGKAPKLLIYSASNLESGVPSRFSGSGSGTDFTLTISSLQSEDFATYYCQQSNEDPYTFGGGTKVEIKR
notes: VK A50S; HEK293F supernatant
Proleukin® (aldesleukin) [1]
  ELISA value (Normal ELISA): 8060 luminescence signal
  ELISA value (wash 3x every hour for 4 HRS): 7320 luminescence signal
  ELISA value (wash 3x every hour for 12 HRS): 3660 luminescence signal
Proleukin® (aldesleukin) [2]
  EC50: 540 pM

B10: Antibody No: 6 (antibody, human IgG1, kappa, N297A, V domains shown)
VH: EVQLVQSGAEVKKPGESLKISCKGSGYAFTNYLIEWVRQMPGKGLEWMGVINPGSGGTNYNEKFKGQVTISADKSISTAYLQWSSLKASDTAMYYCARWRGEGYYAYYDVWGQGTTVTVSS
VL: AIRLTQSPSSFSASTGDRVTITCKASQSVDYQGDSYMNWYQQKPGKAPKLLIYAASNLESGVPSRFSGSGSGTDFTLTISSLQSEDFATYYCQQSNEDPYTFGGGTKVEIKR
notes: VK WT; HEK293F supernatant
Proleukin® (aldesleukin) [1]
  ELISA value (Normal ELISA): 5850 luminescence signal
  ELISA value (wash 3x every hour for 4 HRS): 5120 luminescence signal
  ELISA value (wash 3x every hour for 12 HRS): 1730 luminescence signal
Proleukin® (aldesleukin) [2]
  EC50: 340 pM

B11: Antibody No: 14 (antibody, human IgG1, kappa, N297A, V domains shown)
VH: EVQLVQSGAEVKKPGESLKISCKGSGYAFTNYLIEWVRQMPGKGLEWMGVINPGSGGTYYNEKFKGQVTISADKSISTAYLQWSSLKASDTAMYYCARWRGEGYYAYFDVWGQGTTVTVSS
VL: AIRLTQSPSSFSASTGDRVTITCKASQSVDYQGDSYMNWYQQKPGKAPKLLIYTASNLESGVPSRFSGSGSGTDFTLTISSLQSEDFATYYCQQSNEDPYTFGGGTKVEIKR
notes: VH N58Y; VK A50T; HEK293F supernatant
Proleukin® (aldesleukin) [1]
  ELISA value (Normal ELISA): 7180 luminescence signal
  ELISA value (wash 3x every hour for 4 HRS): 7200 luminescence signal
  ELISA value (wash 3x every hour for 12 HRS): 2540 luminescence signal
Proleukin® (aldesleukin) [2]
  EC50: 360 pM

B12: Antibody No: 19 (antibody, human IgG1, kappa, N297A, V domains shown)
VH: EVQLVQSGAEVKKPGESLKISCKGSGYAFTNYLIEWVRQMPGKGLEWMGVINPGSGGTYYNEKFKGQVTISADKSISTAYLQWSSLKASDTAMYYCARWRGEGYYAYYDVWGQGTTVTVSS
VL: AIRLTQSPSSFSASTGDRVTITCKASQSVDYQGDSYMNWYQQKPGKAPKLLIYTASNLESGVPSRFSGSGSGTDFTLTISSLQSEDFATYYCQQSNEDPYTFGGGTKVEIKR
notes: VK A50T; HEK293F supernatant
Proleukin® (aldesleukin) [1]
  ELISA value (Normal ELISA): 5400 luminescence signal
  ELISA value (wash 3x every hour for 4 HRS): 4880 luminescence signal
  ELISA value (wash 3x every hour for 12 HRS): 2210 luminescence signal
Proleukin® (aldesleukin) [2]
  EC50: 500 pM

B13: Antibody No: 10 (antibody, human IgG1, kappa, N297A, V domains shown)
VH: EVQLVQSGAEVKKPGESLKISCKGSGYAFTNYLIEWVRQMPGKGLEWMGVINPGSGGTNYNEKFKGQVTISADKSISTAYLQWSSLKASDTAMYYCARWRGEGYYAYYDVWGQGTTVTVSS
VL: AIRLTQSPSSFSASTGDRVTITCKASQSVDYQGDSYLNWYQQKPGKAPKLLIYSASNLESGVPSRFSGSGSGTDFTLTISSLQSEDFATYYCQQSNEDPYTFGGGTKVEIKR
notes: VK M33L + A50S; HEK293F supernatant
Proleukin® (aldesleukin) [1]
  ELISA value (Normal ELISA): 6050 luminescence signal
  ELISA value (wash 3x every hour for 4 HRS): 4430 luminescence signal
  ELISA value (wash 3x every hour for 12 HRS): 1630 luminescence signal
Proleukin® (aldesleukin) [2]
  EC50: 350 pM

B14: Antibody No: 5 (antibody, human IgG1, kappa, N297A, V domains shown)
VH: EVQLVQSGAEVKKPGESLKISCKGSGYAFTNYLIEWVRQMPGKGLEWMGVINPGSGGTNYNEKFKGQVTISADKSISTAYLQWSSLKASDTAMYYCARWRGEGYYAYFDVWGQGTTVTVSS
VL: AIRLTQSPSSFSASTGDRVTITCKASQSVDYQGDSYLNWYQQKPGKAPKLLIYSASNLESGVPSRFSGSGSGTDFTLTISSLQSEDFATYYCQQSNEDPYTFGGGTKVEIKR
notes: VH WT; VK M33L + A50S; HEK293F supernatant
Proleukin® (aldesleukin) [1]
  ELISA value (Normal ELISA): 4970 luminescence signal
  ELISA value (wash 3x every hour for 4 HRS): 4490 luminescence signal
  ELISA value (wash 3x every hour for 12 HRS): 873 luminescence signal
Proleukin® (aldesleukin) [2]
  EC50: 500 pM

B15: Antibody No: 17 (antibody, human IgG1, kappa, N297A, V domains shown)
VH: EVQLVQSGAEVKKPGESLKISCKGSGYAFTNYLIEWVRQMPGKGLEWMGVINPGSGGTYYNEKFKGQVTISADKSISTAYLQWSSLKASDTAMYYCARWRGEGYYAYYDVWGQGTTVTVSS
VL: AIRLTQSPSSFSASTGDRVTITCKASQSVDYQGDSYLNWYQQKPGKAPKLLIYAASNLESGVPSRFSGSGSGTDFTLTISSLQSEDFATYYCQQSNEDPYTFGGGTKVEIKR
notes: VK M33L; HEK293F supernatant
Proleukin® (aldesleukin) [1]
  ELISA value (Normal ELISA): 3050 luminescence signal
  ELISA value (wash 3x every hour for 4 HRS): 2820 luminescence signal
  ELISA value (wash 3x every hour for 12 HRS): 1140 luminescence signal
Proleukin® (aldesleukin) [2]
  EC50: 1390 pM
